According to article PMC3326314 (Nucleic Acids Research, 2011):

Key:
Rif2 full length = molecular target: T1, Rif2 full length (UniProt Q06208 1-395); assay: NMR titration
T1 sequence (looked up): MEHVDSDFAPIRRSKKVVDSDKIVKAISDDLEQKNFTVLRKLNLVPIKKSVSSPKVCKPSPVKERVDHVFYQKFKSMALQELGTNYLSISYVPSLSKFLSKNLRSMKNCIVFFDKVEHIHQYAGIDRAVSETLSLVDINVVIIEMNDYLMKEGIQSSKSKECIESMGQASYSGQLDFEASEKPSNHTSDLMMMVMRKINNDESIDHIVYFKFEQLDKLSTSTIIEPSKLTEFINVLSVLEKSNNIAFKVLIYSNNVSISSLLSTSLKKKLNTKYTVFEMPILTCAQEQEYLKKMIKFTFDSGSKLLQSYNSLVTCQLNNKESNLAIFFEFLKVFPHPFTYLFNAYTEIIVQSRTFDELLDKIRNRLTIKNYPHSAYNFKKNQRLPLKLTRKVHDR

Rap1[358-827] [1] = molecular target: T2, Rap1[358-827] (Saccharomyces cerevisiae, UniProt P11938 358-827); assay: X-ray crystallography
T2 sequence: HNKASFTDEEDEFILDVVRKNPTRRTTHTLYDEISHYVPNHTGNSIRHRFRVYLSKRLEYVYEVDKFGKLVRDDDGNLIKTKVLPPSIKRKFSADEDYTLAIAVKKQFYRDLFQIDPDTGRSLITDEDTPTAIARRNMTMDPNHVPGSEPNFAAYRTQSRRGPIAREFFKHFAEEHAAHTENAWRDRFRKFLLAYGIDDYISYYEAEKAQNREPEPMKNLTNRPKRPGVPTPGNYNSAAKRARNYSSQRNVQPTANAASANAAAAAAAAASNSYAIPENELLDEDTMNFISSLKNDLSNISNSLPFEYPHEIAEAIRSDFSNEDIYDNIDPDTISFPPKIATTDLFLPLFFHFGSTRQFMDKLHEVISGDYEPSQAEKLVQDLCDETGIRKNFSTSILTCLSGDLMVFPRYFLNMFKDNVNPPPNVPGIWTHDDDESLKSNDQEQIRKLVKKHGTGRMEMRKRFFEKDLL

Rap1[117-827] = molecular target: T3, Rap1[117-827] (Saccharomyces cerevisiae, UniProt P11938 117-827); assay: SAXS and AUC
T3 sequence: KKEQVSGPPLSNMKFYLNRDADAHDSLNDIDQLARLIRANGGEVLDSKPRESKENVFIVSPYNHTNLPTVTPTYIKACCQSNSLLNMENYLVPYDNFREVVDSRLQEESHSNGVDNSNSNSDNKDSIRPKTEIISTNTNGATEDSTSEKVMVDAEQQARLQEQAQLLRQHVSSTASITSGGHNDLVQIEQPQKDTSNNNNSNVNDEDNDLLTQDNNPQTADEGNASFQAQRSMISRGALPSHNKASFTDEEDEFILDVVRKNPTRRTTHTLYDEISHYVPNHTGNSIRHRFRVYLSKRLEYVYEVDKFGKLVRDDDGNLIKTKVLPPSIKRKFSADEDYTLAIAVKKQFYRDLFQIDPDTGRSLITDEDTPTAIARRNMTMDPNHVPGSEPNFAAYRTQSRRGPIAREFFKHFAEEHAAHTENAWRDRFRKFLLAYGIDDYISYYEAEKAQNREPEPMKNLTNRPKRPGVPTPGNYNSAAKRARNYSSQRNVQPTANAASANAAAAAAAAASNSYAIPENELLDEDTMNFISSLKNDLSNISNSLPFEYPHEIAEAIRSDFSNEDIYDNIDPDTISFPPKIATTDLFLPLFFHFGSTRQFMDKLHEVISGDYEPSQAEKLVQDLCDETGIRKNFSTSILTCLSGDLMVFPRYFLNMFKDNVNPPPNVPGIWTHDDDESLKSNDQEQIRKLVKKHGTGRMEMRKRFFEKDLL

Rap1 WT (Rap1-fl) = molecular target: T4, Rap1 WT (Rap1-fl) (Saccharomyces cerevisiae, UniProt P11938 1-827); assay: SAXS and AUC
T4 sequence: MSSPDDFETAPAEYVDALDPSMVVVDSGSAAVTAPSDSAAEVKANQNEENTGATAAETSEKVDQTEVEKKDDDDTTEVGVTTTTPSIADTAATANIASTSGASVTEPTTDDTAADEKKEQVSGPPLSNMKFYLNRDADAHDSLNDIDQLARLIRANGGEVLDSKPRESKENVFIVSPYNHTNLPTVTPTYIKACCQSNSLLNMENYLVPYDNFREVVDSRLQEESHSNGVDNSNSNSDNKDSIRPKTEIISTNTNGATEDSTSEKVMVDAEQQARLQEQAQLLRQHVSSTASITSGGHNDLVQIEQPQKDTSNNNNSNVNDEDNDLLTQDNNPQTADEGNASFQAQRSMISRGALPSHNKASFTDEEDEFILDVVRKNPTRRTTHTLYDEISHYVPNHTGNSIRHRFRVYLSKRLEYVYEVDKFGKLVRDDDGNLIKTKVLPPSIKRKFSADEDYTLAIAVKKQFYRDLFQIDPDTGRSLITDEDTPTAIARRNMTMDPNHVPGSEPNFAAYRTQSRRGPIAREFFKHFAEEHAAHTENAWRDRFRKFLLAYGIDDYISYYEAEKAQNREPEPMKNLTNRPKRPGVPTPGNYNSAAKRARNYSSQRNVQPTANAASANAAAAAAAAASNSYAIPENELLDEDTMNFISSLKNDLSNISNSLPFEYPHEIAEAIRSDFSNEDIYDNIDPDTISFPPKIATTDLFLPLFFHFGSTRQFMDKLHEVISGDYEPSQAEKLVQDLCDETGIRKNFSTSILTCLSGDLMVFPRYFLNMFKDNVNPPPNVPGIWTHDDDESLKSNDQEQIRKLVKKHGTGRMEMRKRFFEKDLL

Rap1[358-827] [2] = molecular target: T2, Rap1[358-827]; assay: SAXS and AUC
Rap1[Y592A-K597A] = molecular target: T5, Rap1[Y592A-K597A] (Saccharomyces cerevisiae, UniProt P11938 1-827, Y592A;K597A); assay: EMSA
T5 sequence: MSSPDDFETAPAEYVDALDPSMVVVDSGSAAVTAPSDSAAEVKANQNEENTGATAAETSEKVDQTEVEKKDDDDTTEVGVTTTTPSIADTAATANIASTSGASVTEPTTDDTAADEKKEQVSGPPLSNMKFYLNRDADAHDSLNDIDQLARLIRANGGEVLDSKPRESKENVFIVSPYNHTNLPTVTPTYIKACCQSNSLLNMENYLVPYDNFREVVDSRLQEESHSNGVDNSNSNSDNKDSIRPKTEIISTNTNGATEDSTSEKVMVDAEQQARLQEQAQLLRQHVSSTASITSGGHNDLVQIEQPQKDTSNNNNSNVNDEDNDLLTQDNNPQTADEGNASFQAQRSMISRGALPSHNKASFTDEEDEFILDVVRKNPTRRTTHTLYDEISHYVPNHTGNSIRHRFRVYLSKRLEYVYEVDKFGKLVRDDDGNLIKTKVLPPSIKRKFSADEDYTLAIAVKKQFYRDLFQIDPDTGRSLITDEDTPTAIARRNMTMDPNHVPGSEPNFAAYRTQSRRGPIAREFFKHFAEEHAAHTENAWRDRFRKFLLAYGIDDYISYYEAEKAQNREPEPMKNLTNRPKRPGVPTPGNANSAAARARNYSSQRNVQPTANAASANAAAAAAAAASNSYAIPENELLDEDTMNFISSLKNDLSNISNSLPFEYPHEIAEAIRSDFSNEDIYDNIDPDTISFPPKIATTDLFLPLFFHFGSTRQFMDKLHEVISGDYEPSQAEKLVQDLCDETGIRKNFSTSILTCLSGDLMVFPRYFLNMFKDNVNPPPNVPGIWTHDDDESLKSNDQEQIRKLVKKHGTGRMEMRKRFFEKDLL

Rap1Δ[591-597] = molecular target: T6, Rap1Δ[591-597] (Saccharomyces cerevisiae, UniProt P11938 1-827, del591-597); assay: EMSA
T6 sequence: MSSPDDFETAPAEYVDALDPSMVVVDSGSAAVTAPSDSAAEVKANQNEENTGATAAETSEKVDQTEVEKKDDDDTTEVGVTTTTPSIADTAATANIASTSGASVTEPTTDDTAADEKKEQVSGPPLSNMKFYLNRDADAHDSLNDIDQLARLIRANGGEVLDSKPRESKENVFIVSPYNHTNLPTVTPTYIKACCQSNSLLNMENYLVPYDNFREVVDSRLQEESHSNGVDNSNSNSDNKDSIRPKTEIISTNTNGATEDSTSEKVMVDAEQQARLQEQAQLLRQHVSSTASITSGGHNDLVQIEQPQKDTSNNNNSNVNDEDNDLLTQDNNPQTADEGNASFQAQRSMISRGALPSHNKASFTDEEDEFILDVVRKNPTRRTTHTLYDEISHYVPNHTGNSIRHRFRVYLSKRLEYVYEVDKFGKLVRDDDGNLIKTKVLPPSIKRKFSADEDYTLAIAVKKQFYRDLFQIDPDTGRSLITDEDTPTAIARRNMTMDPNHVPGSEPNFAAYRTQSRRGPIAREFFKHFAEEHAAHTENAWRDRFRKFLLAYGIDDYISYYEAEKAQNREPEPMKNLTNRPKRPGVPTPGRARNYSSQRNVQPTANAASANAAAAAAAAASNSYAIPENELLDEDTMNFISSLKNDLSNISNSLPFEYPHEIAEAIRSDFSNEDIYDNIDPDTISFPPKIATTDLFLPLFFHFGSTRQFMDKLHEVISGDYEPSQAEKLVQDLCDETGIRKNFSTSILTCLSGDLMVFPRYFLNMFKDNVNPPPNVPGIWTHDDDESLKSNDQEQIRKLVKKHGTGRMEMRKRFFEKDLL

B1: Rap1[675-827] (domain or fragment, S. cerevisiae, UniProt P11938 675-827, looked up)
chain: SDFSNEDIYDNIDPDTISFPPKIATTDLFLPLFFHFGSTRQFMDKLHEVISGDYEPSQAEKLVQDLCDETGIRKNFSTSILTCLSGDLMVFPRYFLNMFKDNVNPPPNVPGIWTHDDDESLKSNDQEQIRKLVKKHGTGRMEMRKRFFEKDLL
B1: binds (Rif2 full length).

B2: 31-mer crystallography duplex (dsDNA)
DNA 1: ACCTGGTGTGTGGGTGTTGTGTGGTGTTCAC
DNA 2: GTGTGAACACCACACAACACCCACACACCAG
B2: binds (Rap1[358-827] [1]).

B3: 20-mer DNA duplex (AUC and SAXS) (dsDNA)
DNA 1: TCCTGGTGTGTGGGTGTGCG
DNA 2: GACGCACACCCACACACCAG
B3: binds (Rap1[117-827]); binds (Rap1 WT (Rap1-fl)); binds (Rap1[358-827] [2]).

B4: 21-mer telomeric DNA duplex (ITC and EMSA) (dsDNA)
DNA 1: TCCTGGTGTGTGGGTGTGCGG
DNA 2: GCACACCCACACACCAGGACC
B4: binds (Rap1[Y592A-K597A]); binds (Rap1Δ[591-597]).
